Test results: paper doi:10.1101/2021.03.16.435520
Where “and” joins values, the source holds several entries; their conditions need not be identical. Equal entries are not always repeated.

Assays:
[1] = target: IRE1α kinase-endoribonuclease module, unphosphorylated (IRE1-KR-0P) (human) (UniProt O75460); assay: cross-linking
[2] = target: IRE1α kinase-endoribonuclease module, fully phosphorylated (IRE1-KR-3P) (human) (UniProt O75460); assay: cross-linking

IRE1α kinase-endoribonuclease module, unphosphorylated (IRE1-KR-0P) (from UniProt O75460 547-977) (domain or fragment)
stoichiometry N [1]: 2

IRE1α kinase-endoribonuclease module, fully phosphorylated (IRE1-KR-3P) (from UniProt O75460 547-977) (domain or fragment)
stoichiometry N [2]: 2 and 4 and 6
